# Values of other authors, collected in patent US20220133873A1, “CANCER THERAPY” (Madison Vaccines Inc., priority 2019, published 2022).
# How the values were obtained:
# [1] = intravenously or subcutaneously, doses 50 to 500 μg/m2/day
# [2] = system: advanced (metastatic) melanoma; conditions: 173 patients, 2 mg/kg or 10 mg/kg at 3-week intervals
Substance,tolerability [1],drug-related grade 3 or 4 adverse event reported in more than one patient [2],overall response rate ([2]; irrespective of dose) [%]
"GM-CSF: Granulocyte-macrophage colony-stimulating factor, vaccine adjuvant",generally well tolerated,,
pembrolizumab,,Grade 3 fatigue,26
